# Source: publication PMC3170884 (Frontiers in Physiology, 2011)
# Legend:
# [1] = biological target: recombinant human BMP2 derived from E. coli expression (human) (UniProt P12643); assay: SPR
# [2] = biological target: recombinant human BMP2 derived from E. coli expression (human, UniProt P12643 283-396); assay: SPR
# Chain of recombinant human BMP2 derived from E. coli expression (P12643 283-396): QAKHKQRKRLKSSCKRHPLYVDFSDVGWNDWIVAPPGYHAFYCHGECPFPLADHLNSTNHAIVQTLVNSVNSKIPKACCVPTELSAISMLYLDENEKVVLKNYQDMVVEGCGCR
# Chain of Xenopus Tsg (xTsg) from E. coli, non-glycosylated (natural protein) (Q9I8M9 26-218 limits assumed): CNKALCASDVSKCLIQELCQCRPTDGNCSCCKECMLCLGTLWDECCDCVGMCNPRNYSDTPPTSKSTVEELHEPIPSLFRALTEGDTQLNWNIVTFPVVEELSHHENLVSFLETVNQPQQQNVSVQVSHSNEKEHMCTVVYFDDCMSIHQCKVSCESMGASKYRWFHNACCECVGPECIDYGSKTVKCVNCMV
# Chain of recombinant human BMP2 derived from E. coli expression (human) (P12643 283-396): as the sequence (P12643 283-396) above
Kd [1] [nM],koff [1] [s⁻¹],kon [1] [M⁻¹ s⁻¹],KD of the low affinity interaction of the biphasic binding [2] [nM],KD of the slow (high affinity) interaction of the biphasic binding [2] [nM],Molecule
2.5,0.0002,110000,,,"Xenopus Tsg (xTsg) from insect cells, glycosylated (natural protein)"
20.2,0.00071,38000,,,"Xenopus Tsg (xTsg) from E. coli, non-glycosylated (natural protein)"
,,,301,39.6,"mouse TWSG1 (mTWSG1) from E. coli, non-glycosylated (natural protein, UniProt Q9EP52 25-222, looked up) CNKALCASDVSKCLIQELCQCRPGEGNCPCCKECMLCLGALWDECCDCVGMCNPRNYSDTPPTSKSTVEELHEPIPSLFRALTEGDTQLNWNIVSFPVAEELSHHENLVSFLETVNQLHHQNVSVPSNNVHAPFPSDKERMCTVVYFDDCMSIHQCKISCESMGASKYRWFHNACCECIGPECIDYGSKTVKCMNCMF"
